B1: GFP-FAN1, full-length FAN1 (FAN1^FL) [human] / MLH1 (endogenous, human) [human (endogenous in iPSCs, lymphoblastoid cells, U2OS, HEK293T, MSNs, HeLa)] (parent complex)
chain 1: MMSEGKPPDKKRPRRSLSISKNKKKASNSIISCFNNAPPAKLACPVCSKMVPRYDLNRHLDEMCANNDFVQVDPGQVGLINSNVSMVDLTSVTLEDVTPKKSPPPKTNLTPGQSDSAKREVKQKISPYFKSNDVVCKNQDELRNRSVKVICLGSLASKLSRKYVKAKKSIDKDEEFAGSSPQSSKSTVVKSLIDNSSEIEDEDQILENSSQKENVFKCDSLKEECIPEHMVRGSKIMEAESQKATRECEKSALTPGFSDNAIMLFSPDFTLRNTLKSTSEDSLVKQECIKEVVEKREACHCEEVKMTVASEAKIQLSDSEAKSHSSADDASAWSNIQEAPLQDDSCLNNDIPHSIPLEQGSSCNGPGQTTGHPYYLRSFLVVLKTVLENEDDMLLFDEQEKGIVTKFYQLSATGQKLYVRLFQRKLSWIKMTKLEYEEIALDLTPVIEELTNAGFLQTESELQELSEVLELLSAPELKSLAKTFHLVNPNGQKQQLVDAFLKLAKQRSVCTWGKNKPGIGAVILKRAKALAGQSVRICKGPRAVFSRILLLFSLTDSMEDEDAACGGQGQLSTVLLVNLGRMEFPSYTINRKTHIFQDRDDLIRYAAATHMLSDISSAMANGNWEEAKELAQCAKRDWNRLKNHPSLRCHEDLPLFLRCFTVGWIYTRILSRFVEILQRLHMYEEAVRELESLLSQRIYCPDSRGRWWDRLALNLHQHLKRLEPTIKCITEGLADPEVRTGHRLSLYQRAVRLRESPSCKKFKHLFQQLPEMAVQDVKHVTITGRLCPQRGMCKSVFVMEAGEAADPTTVLCSVEELALAHYRRSGFDQGIHGEGSTFSTLYGLLLWDIIFMDGIPDVFRNACQAFPLDLCTDSFFTSRRPALEARLQLIHDAPEESLRAWVAATWHEQEGRVASLVSWDRFTSLQQAQDLVSCLGGPVLSGVCRHLAADFRHCRGGLPDLVVWNSQSRHFKLVEVKGPNDRLSHKQMIWLAELQKLGAEVEVCHVVAVGAKSQSLS
chain 2: MSFVAGVIRRLDETVVNRIAAGEVIQRPANAIKEMIENCLDAKSTSIQVIVKEGGLKLIQIQDNGTGIRKEDLDIVCERFTTSKLQSFEDLASISTYGFRGEALASISHVAHVTITTKTADGKCAYRASYSDGKLKAPPKPCAGNQGTQITVEDLFYNIATRRKALKNPSEEYGKILEVVGRYSVHNAGISFSVKKQGETVADVRTLPNASTVDNIRSIFGNAVSRELIEIGCEDKTLAFKMNGYISNANYSVKKCIFLLFINHRLVESTSLRKAIETVYAAYLPKNTHPFLYLSLEISPQNVDVNVHPTKHEVHFLHEESILERVQQHIESKLLGSNSSRMYFTQTLLPGLAGPSGEMVKSTTSLTSSSTSGSSDKVYAHQMVRTDSREQKLDAFLQPLSKPLSSQPQAIVTEDKTDISSGRARQQDEEMLELPAPAEVAAKNQSLEGDTTKGTSEMSEKRGPTSSNPRKRHREDSDVEMVEDDSRKEMTAACTPRRRIINLTSVLSLQEEINEQGHEVLREMLHNHSFVGCVNPQWALAQHQTKLYLLNTTKLSEELFYQILIYDFANFGVLRLSEPAPLFDLAMLALDSPESGWTEEDGPKEGLAEYIVEFLKKKAEMLADYFSLEIDEEGNLIGLPLLIDNYVPPLEGLPIFILRLATEVNWDEEKECFESLSKECAMFYSIRKQYISEESTLSGQQSEVPGSIPNSWKWTVEHIVYKALRSHILPPKHFTEDGNILQLANLPDLYKVFERC

Variants of: B1
Test: GFP-Trap pull-down, quantified immunoblot; U2OS cell extracts; n = 5 biological replicates; parent: 100; read off a plot

Row | Variant | percent of parent
1 | chain 1 F129A | ~5
2 | chain 1 Y128A | ~1
3 | chain 1 Q123A | ~110
4 | chain 1 S126A | ~10
